Experimental data taken from patent US20220324974A1 (SORRENTO THERAPEUTICS, published 2022).
One block for each binder: values may come before it.

Assays:
[1] = biological target: T1, CD38 expressed on human tumor cell lines (RPMI8226, MM1.R and other CD38(+) lines) (human, UniProt P28907 1-300); experiment: cell-based or functional assay
[2] = biological target: T1, CD38 expressed on human tumor cell …; experiment: cell-based or functional assay; remark: listed apart in the source
[3] = biological target: T2, CD3 antigen on primary human T cells (human, UniProt P07766 23-207; P04234 22-171; P09693 23-182); experiment: flow cytometry on CD38-minus primary human T cells
T2 construct: CD3 is a multi-chain complex; also called CD3-expressing T cells; CD3-expressing CD38-minus T cells

[4] = biological target: T2, CD3 antigen on primary human T cells; experiment: flow cytometry on freshly isolated primary human T cells, anti-human Fc-APC secondary, GeoMean RL1-H of singlets
[5] = biological target: T2, CD3 antigen on primary human T cells; experiment: as above; remark: listed apart in the source
[6] = biological target: T3, BCMA expressed on MM1.R myeloma cells (UniProt Q02223 1-184); experiment: cell-based or functional assay
T3 sequence (looked up): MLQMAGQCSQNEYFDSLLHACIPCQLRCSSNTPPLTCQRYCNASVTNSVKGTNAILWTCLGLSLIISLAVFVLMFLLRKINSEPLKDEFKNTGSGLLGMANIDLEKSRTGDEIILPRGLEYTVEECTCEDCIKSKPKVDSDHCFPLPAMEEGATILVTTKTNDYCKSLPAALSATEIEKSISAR

[7] = biological target: T4, BCMA target antigen (Acro Biosystems catalog # BCA-H522g) (UniProt Q02223 1-54); experiment: SPR Biacore, antibody captured by anti-Fc, antigen as analyte, 1:1 model
T4 construct: range 1-54; Bought protein; also called BMCA target antigen; BCMA antigen
T4 sequence (looked up): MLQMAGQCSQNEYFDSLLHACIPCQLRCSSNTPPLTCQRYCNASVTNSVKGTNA

[8] = biological target: T2, CD3 antigen on primary human T cells; experiment: flow cytometry on CD38-minus primary human T cells, anti-human Fc-APC secondary, GeoMean RL1-H of singlets

B1: Kv5.1 CD38/CD3 three-chain in-tandem bispecific antibody (bispecific antibody)
chain 1: QVQLVESGGGLVKPGGSLRLSCAASGFTFSDDYMSWIRQAPGKGLEWVASVSNGRPTTYYADSVRGRFTISRDNAKNSLYLQMNSLRAEDTAVYYCAREGWSGEFTDWGQGTLVTVSSASTKGPSVFPLAPSSKSTSGGTAALGCLVKDYFPEPVTVSWNSGALTSGVHTFPAVLQSSGLYSLSSVVTVPSSSLGTQTYICNVNHKPSNTKVDKRVEPKSCGGSGSGSGGSSGGGSGGGGSQVQLVQSGAEVKKPGASVKVSCKASGYTFISYTMHWVRQAPGQGLEWMGYINPRSGYTHYNQKLKDKATLTADKSASTAYMELSSLRSEDTAVYYCARSAYYDYDGFAYWGQGTLVTVSSASTKGPSVFPLAPSSKSTSGGTAALGCLVKDYFPEPVTVSWNSGALTSGVHTFPAVLQSSGLYSLSSVVTVPSSSLGTQTYICNVNHKPSNTKVDKRVEPKSSDKTHTCPPCPAPEAAGGPSVFLFPPKPKDTLMISRTPEVTCVVVDVSHEDPEVKFNWYVDGVEVHNAKTKPREEQYNSTYRVVSVLTVLHQDWLNGKEYKCKVSNKALPAPIEKTISKAKGQPREPQVYTLPPSREEMTKNQVSLSCAVKGFYPSDIAVEWESNGQPENNYKTTPPVLDSDGSFFLVSKLTVDKSRWQQGNVFSCSVMHEALHNHYTQKSLSLSPGK
chain 2: not shown
chain 3: DIQMTQSPSSLSASVGDRVTITCSASSSVSYMNWYQQKPGKAPKRLIYDTSKLASGVPSRFSGSGSGTDFTLTISSLQPEDFATYYCQQWSSNPPTFGGGTKVEIKRTVAAPSVFIFPPSDEQLKSGTASVVCLLNNFYPREAKVQWKVDNALQSGNSQESVTEQDSKDSTYSLSSTLTLSKADYEKHKVYACEVTHQGLSSPVTKSFNRGESGGSGGDKTHTCPPCPAPEAAGGPSVFLFPPKPKDTLMISRTPEVTCVVVDVSHEDPEVKFNWYVDGVEVHNAKTKPREEQYNSTYRVVSVLTVLHQDWLNGKEYKCKVSNKALPAPIEKTISKAKGQPREPQVYTLPPSREEMTKNQVSLWCLVKGFYPSDIAVEWESNGQPENNYKTTPPVLDSDGSFFLYSKLTVDKSRWQQGNVFSCSVMHEALHNHYTQKSLSLSPGK
IC50 pM, TAA-dependent cytotoxicity (MM1.R target cells by the text) [1]: 3 pM
IC50 pM, TAA-dependent cytotoxicity towards RPMI8226 cells [2]: 4.2 pM

fold reduction of binding to CD3 [3]: > 100 fold
B2: Kv6.1 (7GS) CD38/CD3 two-chain in-tandem bispecific antibody with non-cleavable GS second linker (bispecific antibody)
heavy: B1 chain 1
light: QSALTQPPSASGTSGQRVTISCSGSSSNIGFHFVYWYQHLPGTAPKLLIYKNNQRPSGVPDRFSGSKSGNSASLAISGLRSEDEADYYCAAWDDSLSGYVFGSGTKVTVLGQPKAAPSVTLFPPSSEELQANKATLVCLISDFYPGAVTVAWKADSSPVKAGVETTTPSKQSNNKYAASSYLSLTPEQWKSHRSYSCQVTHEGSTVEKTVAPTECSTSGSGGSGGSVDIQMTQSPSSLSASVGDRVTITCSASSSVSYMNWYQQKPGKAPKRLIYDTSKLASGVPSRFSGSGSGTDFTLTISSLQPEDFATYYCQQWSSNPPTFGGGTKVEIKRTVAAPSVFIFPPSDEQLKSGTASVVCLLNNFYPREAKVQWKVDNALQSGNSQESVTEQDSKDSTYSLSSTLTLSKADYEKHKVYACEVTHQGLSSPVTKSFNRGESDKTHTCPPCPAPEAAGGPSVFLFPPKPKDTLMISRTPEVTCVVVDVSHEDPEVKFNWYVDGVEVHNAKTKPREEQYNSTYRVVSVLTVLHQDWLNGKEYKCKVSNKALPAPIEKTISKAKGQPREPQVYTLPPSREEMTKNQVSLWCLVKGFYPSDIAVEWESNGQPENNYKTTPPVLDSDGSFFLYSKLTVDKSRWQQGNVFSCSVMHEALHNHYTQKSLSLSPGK
notes: also called control non-cleavable bispecific antibody having an in-tandem structure (Kv6.1)

fold reduction of binding to CD3 [3]: > 1000 fold
B3: Kv6.2 (7GS) CD38/CD3 two-chain non-tandem bispecific antibody with non-cleavable GS second linker (bispecific antibody)
heavy: QVQLVESGGGLVKPGGSLRLSCAASGFTFSDDYMSWIRQAPGKGLEWVASVSNGRPTTYYADSVRGRFTISRDNAKNSLYLQMNSLRAEDTAVYYCAREGWSGEFTDWGQGTLVTVSSASTKGPSVFPLAPSSKSTSGGTAALGCLVKDYFPEPVTVSWNSGALTSGVHTFPAVLQSSGLYSLSSVVTVPSSSLGTQTYICNVNHKPSNTKVDKRVEPKSSDKTHTCPPCPAPEAAGGPSVFLFPPKPKDTLMISRTPEVTCVVVDVSHEDPEVKFNWYVDGVEVHNAKTKPREEQYNSTYRVVSVLTVLHQDWLNGKEYKCKVSNKALPAPIEKTISKAKGQPREPQVYTLPPSREEMTKNQVSLSCAVKGFYPSDIAVEWESNGQPENNYKTTPPVLDSDGSFFLVSKLTVDKSRWQQGNVFSCSVMHEALHNHYTQKSLSLSPGKGSGGSSGGGSGGGGSQVQLVQSGAEVKKPGASVKVSCKASGYTFISYTMHWVRQAPGQGLEWMGYINPRSGYTHYNQKLKDKATLTADKSASTAYMELSSLRSEDTAVYYCARSAYYDYDGFAYWGQGTLVTVSSASTKGPSVFPLAPSSKSTSGGTAALGCLVKDYFPEPVTVSWNSGALTSGVHTFPAVLQSSGLYSLSSVVTVPSSSLGTQTYICNVNHKPSNTKVDKRVEPKSC
light: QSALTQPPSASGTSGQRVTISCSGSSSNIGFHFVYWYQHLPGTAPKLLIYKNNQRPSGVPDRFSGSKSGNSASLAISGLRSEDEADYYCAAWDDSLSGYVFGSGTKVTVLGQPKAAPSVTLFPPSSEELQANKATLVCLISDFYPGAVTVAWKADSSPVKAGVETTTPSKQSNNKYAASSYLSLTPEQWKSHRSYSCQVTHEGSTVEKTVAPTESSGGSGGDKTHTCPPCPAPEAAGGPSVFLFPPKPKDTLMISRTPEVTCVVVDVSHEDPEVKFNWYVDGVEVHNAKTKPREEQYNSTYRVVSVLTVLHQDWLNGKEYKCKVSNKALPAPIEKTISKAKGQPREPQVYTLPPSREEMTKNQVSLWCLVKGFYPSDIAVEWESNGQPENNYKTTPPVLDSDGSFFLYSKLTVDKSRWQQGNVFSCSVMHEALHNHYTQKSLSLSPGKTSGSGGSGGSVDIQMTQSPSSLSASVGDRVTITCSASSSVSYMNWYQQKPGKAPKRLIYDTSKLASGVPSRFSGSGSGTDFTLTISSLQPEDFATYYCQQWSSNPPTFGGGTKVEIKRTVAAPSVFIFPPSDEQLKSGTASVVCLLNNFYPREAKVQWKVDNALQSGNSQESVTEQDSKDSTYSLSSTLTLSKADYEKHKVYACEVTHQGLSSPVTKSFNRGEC
notes: also called control non-cleavable bispecific antibody having a non-tandem structure (Kv6.2)

EC50 (read off the curve) [4]: ~2 µg/mL
EC50 (read off the curve) [5]: ~2 µg/mL
Kd [7]: 47.7 nM
koff [7]: 0.0364 s⁻¹
kon [7]: 762000 M⁻¹ s⁻¹
B4: Kv4.33 BCMA/CD3 three-chain non-tandem bispecific antibody (bispecific antibody)
chain 1: EVQLVESGGGLVKPGGSLRLSCAASGFTSSTAWMSWVRQAPGKGLEWVGRIKSKSDGGTTDYAAPVKGRFTISRDDSKNTLFLQMNSLKTEDTAVYYCAKGGGTYGYWGQGTTVTVSSASTKGPSVFPLAPSSKSTSGGTAALGCLVKDYFPEPVTVSWNSGALTSGVHTFPAVLQSSGLYSLSSVVTVPSSSLGTQTYICNVNHKPSNTKVDKRVEPKSSDKTHTCPPCPAPEAAGGPSVFLFPPKPKDTLMISRTPEVTCVVVDVSHEDPEVKFNWYVDGVEVHNAKTKPREEQYNSTYRVVSVLTVLHQDWLNGKEYKCKVSNKALPAPIEKTISKAKGQPREPQVYTLPPSREEMTKNQVSLSCAVKGFYPSDIAVEWESNGQPENNYKTTPPVLDSDGSFFLVSKLTVDKSRWQQGNVFSCSVMHEALHNHYTQKSLSLSPGKGSGGSSGGGSGGGGSQVQLVQSGAEVKKPGASVKVSCKASGYTFISYTMHWVRQAPGQGLEWMGYINPRSGYTHYNQKLKDKATLTADKSASTAYMELSSLRSEDTAVYYCARSAYYDYDGFAYWGQGTLVTVSSASTKGPSVFPLAPSSKSTSGGTAALGCLVKDYFPEPVTVSWNSGALTSGVHTFPAVLQSSGLYSLSSVVTVPSSSLGTQTYICNVNHKPSNTKVDKRVEPKSC
chain 2: SYVLTQPASVSGSPGQSVTISCTGTSSAHGGHYYVSWYQQHPGKAPKLMIYDVSNRPSGVSNRFSGSKSGNTASLTISGLQAEDEADYYCGSYTSSGSYVFGTGTKLTVLGQPKAAPSVTLFPPSSEELQANKATLVCLISDFYPGAVTVAWKADSSPVKAGVETTTPSKQSNNKYAASSYLSLTPEQWKSHRSYSCQVTHEGSTVEKTVAPTESSGGSGGDKTHTCPPCPAPEAAGGPSVFLFPPKPKDTLMISRTPEVTCVVVDVSHEDPEVKFNWYVDGVEVHNAKTKPREEQYNSTYRVVSVLTVLHQDWLNGKEYKCKVSNKALPAPIEKTISKAKGQPREPQVYTLPPSREEMTKNQVSLWCLVKGFYPSDIAVEWESNGQPENNYKTTPPVLDSDGSFFLYSKLTVDKSRWQQGNVFSCSVMHEALHNHYTQKSLSLSPGK
chain 3: DIQMTQSPSSLSASVGDRVTITCSASSSVSYMNWYQQKPGKAPKRLIYDTSKLASGVPSRFSGSGSGTDFTLTISSLQPEDFATYYCQQWSSNPPTFGGGTKVEIKRTVAAPSVFIFPPSDEQLKSGTASVVCLLNNFYPREAKVQWKVDNALQSGNSQESVTEQDSKDSTYSLSSTLTLSKADYEKHKVYACEVTHQGLSSPVTKSFNRGEC
notes: also called Kv4.33 (3XGS) BCMA/CD3
IC50 pM, TAA-dependent cytotoxicity (MM1.R target cells by the text) [6]: 134 pM

EC50 (read off the curve) [8]: ~2 µg/mL
B5: Kv4.33 (4XGS) CD38/CD3 three-chain non-tandem bispecific antibody (bispecific antibody)
heavy: QVQLVESGGGLVKPGGSLRLSCAASGFTFSDDYMSWIRQAPGKGLEWVASVSNGRPTTYYADSVRGRFTISRDNAKNSLYLQMNSLRAEDTAVYYCAREGWSGEFTDWGQGTLVTVSSASTKGPSVFPLAPSSKSTSGGTAALGCLVKDYFPEPVTVSWNSGALTSGVHTFPAVLQSSGLYSLSSVVTVPSSSLGTQTYICNVNHKPSNTKVDKRVEPKSSDKTHTCPPCPAPEAAGGPSVFLFPPKPKDTLMISRTPEVTCVVVDVSHEDPEVKFNWYVDGVEVHNAKTKPREEQYNSTYRVVSVLTVLHQDWLNGKEYKCKVSNKALPAPIEKTISKAKGQPREPQVYTLPPSREEMTKNQVSLSCAVKGFYPSDIAVEWESNGQPENNYKTTPPVLDSDGSFFLVSKLTVDKSRWQQGNVFSCSVMHEALHNHYTQKSLSLSPGKGGSGSGSGGSSGGGSGGGGSQVQLVQSGAEVKKPGASVKVSCKASGYTFISYTMHWVRQAPGQGLEWMGYINPRSGYTHYNQKLKDKATLTADKSASTAYMELSSLRSEDTAVYYCARSAYYDYDGFAYWGQGTLVTVSSASTKGPSVFPLAPSSKSTSGGTAALGCLVKDYFPEPVTVSWNSGALTSGVHTFPAVLQSSGLYSLSSVVTVPSSSLGTQTYICNVNHKPSNTKVDKRVEPKSC
light 1: not shown
light 2: B4 chain 3
